Residue numbers refer to the chain shown, from its start.

In assay [1] the target is T1, soluble mouse GPNMB (recombinant extracellular domain) (mouse, UniProt Q99P91 23-502).
T1 construct: also called moGPNMB; not shown: C-terminal polyhistidine or Avi-His tag
T1 sequence: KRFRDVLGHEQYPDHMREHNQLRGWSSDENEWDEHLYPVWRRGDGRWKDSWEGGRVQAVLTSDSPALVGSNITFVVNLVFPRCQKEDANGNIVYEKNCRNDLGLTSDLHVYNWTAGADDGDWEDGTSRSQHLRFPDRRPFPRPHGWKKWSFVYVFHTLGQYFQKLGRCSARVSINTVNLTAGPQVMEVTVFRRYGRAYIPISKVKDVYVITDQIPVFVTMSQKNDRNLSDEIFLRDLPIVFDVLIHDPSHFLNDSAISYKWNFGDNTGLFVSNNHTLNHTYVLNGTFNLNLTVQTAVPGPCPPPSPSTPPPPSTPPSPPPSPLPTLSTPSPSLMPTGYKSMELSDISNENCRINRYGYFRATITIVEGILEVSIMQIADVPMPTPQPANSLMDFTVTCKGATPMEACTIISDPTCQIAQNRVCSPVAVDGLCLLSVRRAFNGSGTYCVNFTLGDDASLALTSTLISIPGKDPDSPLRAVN
In words: SPR Biacore T200, IgG captured on Protein A/G; nb = no binding observed.

The target of assay [2] is T2, full-length untagged human GPNMB expressed on cells (human, UniProt Q14956 23-572).
T2 sequence: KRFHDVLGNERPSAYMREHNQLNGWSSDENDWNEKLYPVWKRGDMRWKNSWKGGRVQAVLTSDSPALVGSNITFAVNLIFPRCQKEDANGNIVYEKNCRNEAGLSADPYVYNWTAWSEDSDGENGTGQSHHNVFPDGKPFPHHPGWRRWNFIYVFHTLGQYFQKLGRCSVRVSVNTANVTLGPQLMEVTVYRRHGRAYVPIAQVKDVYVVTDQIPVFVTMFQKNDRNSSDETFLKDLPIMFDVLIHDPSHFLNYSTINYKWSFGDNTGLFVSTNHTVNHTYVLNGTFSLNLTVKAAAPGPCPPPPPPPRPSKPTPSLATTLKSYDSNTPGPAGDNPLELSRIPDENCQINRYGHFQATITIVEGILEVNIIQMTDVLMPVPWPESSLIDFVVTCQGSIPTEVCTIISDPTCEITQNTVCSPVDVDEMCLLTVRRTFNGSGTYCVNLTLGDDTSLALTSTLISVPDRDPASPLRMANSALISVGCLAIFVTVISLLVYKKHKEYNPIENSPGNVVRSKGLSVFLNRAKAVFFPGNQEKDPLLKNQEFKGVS
In words: cell-based or functional assay.

In assay [3] the target is T2, full-length untagged human GPNMB …. In words: cell-based or functional assay. The source holds these as a separate data set.
The target of assay [4] is T3, soluble human GPNMB (recombinant extracellular domain) (human, UniProt Q14956 23-498).
T3 construct: also called huGPNMB; recombinant human GPNMB extracellular domain; not shown: C-terminal polyhistidine or Avi-His tag
T3 sequence: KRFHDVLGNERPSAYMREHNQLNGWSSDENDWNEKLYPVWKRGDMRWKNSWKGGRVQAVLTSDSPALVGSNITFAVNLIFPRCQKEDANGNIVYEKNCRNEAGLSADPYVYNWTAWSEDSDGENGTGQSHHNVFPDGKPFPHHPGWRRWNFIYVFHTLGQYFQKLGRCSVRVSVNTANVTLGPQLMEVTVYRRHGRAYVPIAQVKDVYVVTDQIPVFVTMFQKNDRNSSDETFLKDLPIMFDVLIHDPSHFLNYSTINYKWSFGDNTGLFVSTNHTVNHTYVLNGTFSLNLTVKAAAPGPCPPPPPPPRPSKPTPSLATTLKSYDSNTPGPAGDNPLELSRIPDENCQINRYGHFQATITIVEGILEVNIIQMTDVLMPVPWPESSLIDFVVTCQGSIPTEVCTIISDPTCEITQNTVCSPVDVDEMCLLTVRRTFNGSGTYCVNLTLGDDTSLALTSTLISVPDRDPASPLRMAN
In words: SPR Biacore, IgG captured. Here is the method:
(§1) Binding kinetics of the humanized and affinity matured anti-GPNMB antibodies described above were evaluated using the Biacore T200 (Cytiva). Briefly, IgGs were diluted to 10 μg/mL and captured using a Protein A/G (ThermioFisher, #21186) surface on a CM5 chip that was prepared by amine coupling according to the instrument manufacturer's recommendations. The captured antibodies were tested for their ability to bind human, cynomolgus monkey, and mouse GPNMB recombinant proteins as follows.
(§2) Human, cynomolgus, and mouse GPNMB analytes were diluted in running buffer (HBS-EP+, Teknova, #8022, with 0.5 mg/ml BSA, MP Biomedicals LLC, #820451), to a concentration of 300 nM, then diluted 3-fold serially to 100 nM, 33 nM, and 11 nM. Each sample was injected for 2 minutes to allow association, followed by dissociation in buffer alone for 10 minutes. Each sample injection was followed by the regeneration of the chip with three 30-second injections of 10 mM glycine, pH 1.7. Fresh antibody was captured at the beginning of each cycle.
(§3) Data were analyzed using Biacore evaluation software to generate kinetic constants. The equilibrium dissociation constants (KD) were calculated from the fitted association and dissociation rate constants (k-on and k-off) for each of the anti-GPNMB antibodies.

Assay [5] addresses T4, soluble cynomolgus GPNMB (recombinant extracellular domain) (cynomolgus, UniProt Q14956 23-499 (human entry), limits assumed).
T4 chain: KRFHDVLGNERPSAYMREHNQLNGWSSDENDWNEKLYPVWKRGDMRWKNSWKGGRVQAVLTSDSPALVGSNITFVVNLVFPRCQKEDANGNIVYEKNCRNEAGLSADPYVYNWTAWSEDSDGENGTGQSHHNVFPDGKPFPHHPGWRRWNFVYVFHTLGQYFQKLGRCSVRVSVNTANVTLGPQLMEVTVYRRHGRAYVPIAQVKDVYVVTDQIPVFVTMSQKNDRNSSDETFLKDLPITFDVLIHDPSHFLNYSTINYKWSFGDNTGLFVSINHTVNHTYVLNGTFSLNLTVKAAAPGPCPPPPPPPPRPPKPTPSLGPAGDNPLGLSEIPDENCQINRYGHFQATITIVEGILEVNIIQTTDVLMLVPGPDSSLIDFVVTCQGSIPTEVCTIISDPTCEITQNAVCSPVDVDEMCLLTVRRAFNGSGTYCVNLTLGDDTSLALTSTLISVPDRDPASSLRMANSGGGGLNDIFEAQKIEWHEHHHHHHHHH
In words: SPR Biacore, IgG captured. Here is the method:
as §1, §2, §3

Assay [6] addresses T2, full-length untagged human GPNMB …. In words: FACS titration, FS293-huGPNMB+ cells. Here is the method:
Affinity matured anti-GPNMB antibodies of the present disclosure were examined to determine their ability to bind human and mouse GPNMB expressed on FS293-huGPNMB+ or B16F10 cells, respectively. Cell-based affinity measurements were performed to ascertain the apparent affinities of anti-GPNMB antibodies to cell-surface expressed GPNMB. Serial dilutions of anti-GPNMB antibodies of the present disclosure were added to 100,000 FS293-huGPNMB+ or B16F10 cells and allowed to achieve binding equilibrium at 4° C. After addition of fluorescently labeled secondary antibody and brief washing steps, MFI values as a function of titrated antibody concentration were recorded via FACS analysis. Equilibrium binding curves were fit using nonlinear regression analysis with Graphpad Prism 6 software.

For assay [7] the target is unchanged. In words: cell-based or functional assay. The source holds these as a separate data set.
The target in assay [8] is T1, soluble mouse GPNMB (recombinant …). In words: SPR Biacore, IgG captured. Here is the method:
as §1, §2, §3

B1: anti-GPNMB antibody GPN-92 (antibody, V domains shown)
VH: QVQLVQSGAEVKKPGASVKVSCKASGYTFTSYWMHWVRQAPGQGLEWMGEINPSDGRTNYAQKFQGRVTMTVDKSTSTVYMELSSLRSEDTAVYYCARSGGNYAWFAYWGQGTLVTVSS
VL: DIVMTQSPDSLAVSLGERATINCKASQDVSPSLAWYQQKPGQPPKLLIYSASYRYTGVPDRFSGSGSGTDFTLTISSLQAEDVAVYYCQQHYSIPLTFGGGTKVEIK
notes: humanized GPN-08
Regarding B1, the binding result in assay [1] was “no binding (tested: 300 nM highest analyte concentration)”. Further, in assay [2], the “EC50 GCase” value is 0.27 nM and the “Fold Increase GCase (max response at 1 µg/ml)” value (“Fold Increase GCase” for short) was determined as 1.25 fold. Moreover, in assay [3], the “EC50 PDL1” value is 1.36 nM, the “Fold Increase CD40 (max response at 1 µg/ml)” value (from here on “Fold Increase CD40”) was 1.59 fold and the “Fold Increase PDL1 (max response at 1 µg/ml)” value (“Fold Increase PDL1” for short) stood at 1.99 fold. In addition, in assay [4], the Kd came out at 66.5 nM, the dissociation rate constant (koff) turned out to be 0.005 s⁻¹ and the kon came to 75000 M⁻¹ s⁻¹. In assay [5], the Kd worked out at 67.8 nM, the dissociation rate constant (koff) was determined as 0.0057 s⁻¹ and the kon turned out to be 83000 M⁻¹ s⁻¹.

B2: anti-GPNMB antibody GPN-93 (antibody, V domains shown)
VH: B1 VH with S54Y, G56Q, G100T
VL: B1 VL with A25T, Y53K, T97Q
With B2, the EC50 in assay [6] was determined as 0.568 nM. Further, the binding result in assay [1] is recorded as “no binding (tested: 300 nM highest analyte concentration)”. Besides, in assay [2], the “EC50 GCase” value worked out at 0.5 nM and the “Fold Increase GCase” value came out at 1.45 fold. In assay [3], the “Fold Increase CD40” value came to 1.87 fold and the “Fold Increase PDL1” value came to 2.18 fold. In assay [4], the Kd was 8.7 nM, the koff was 0.00059 s⁻¹ and the kon stood at 68000 M⁻¹ s⁻¹. In assay [5], the Kd worked out at 10.6 nM, the koff came to 0.00071 s⁻¹ and the kon was 67000 M⁻¹ s⁻¹. The “Inflammasome: Fold Decrease IL-1β (max response at 0.3 µg/ml)” value (“Inflammasome: Fold Decrease IL-1β” for short) in assay [7] turned out to be 0.594 fold.

B3: anti-GPNMB antibody GPN-95 (antibody, V domains shown)
VH: B1 VH with S54Y, G56Q, G100T
VL: B1 VL with A25T, S52R, T97Q
notes: also called PGN-95
In assay [6], B3 registered an EC50 of 0.181 nM. Further, in assay [1], the binding result was “no binding (tested: 300 nM highest analyte concentration)”. Further, in assay [2], the “EC50 GCase” value came to 0.23 nM and the “Fold Increase GCase” value was found to be 1.33 fold. Also, in assay [3], the “EC50 PDL1” value worked out at 0.7 nM, the “Fold Increase CD40” value is 1.74 fold and the “Fold Increase PDL1” value turned out to be 1.97 fold. In addition, in assay [4], the equilibrium dissociation constant (Kd) was 7.3 nM, the koff stood at 0.00053 s⁻¹ and the kon was 73000 M⁻¹ s⁻¹. In assay [5], the Kd was 8.3 nM, the koff was found to be 0.0006 s⁻¹ and the kon was 71000 M⁻¹ s⁻¹. The “Inflammasome: Fold Decrease IL-1β” value in assay [7] turned out to be 0.45 fold.

B4: anti-GPNMB antibody GPN-94 (antibody, V domains shown)
VH: B1 VH with S54Y, G56Q, G100T
VL: B1 VL with A25T, Y53K
In the case of B4, in assay [6], the EC50 was 0.186 nM. Besides, in assay [1], the binding result is on record as “no binding (tested: 300 nM highest analyte concentration)”. Besides, in assay [2], the “EC50 GCase” value stood at 0.54 nM and the “Fold Increase GCase” value is 1.4 fold. Further, in assay [3], the “EC50 PDL1” value is 1.14 nM, the “Fold Increase CD40” value amounted to 1.72 fold and the “Fold Increase PDL1” value worked out at 1.88 fold. For the same molecule, in assay [4], the Kd turned out to be 5.4 nM, the koff is 0.00042 s⁻¹ and the kon stood at 78000 M⁻¹ s⁻¹. In assay [5], the equilibrium dissociation constant (Kd) worked out at 6.5 nM, the koff turned out to be 0.00051 s⁻¹ and the kon came out at 78000 M⁻¹ s⁻¹. In addition, the “Inflammasome: Fold Decrease IL-1β” value in assay [7] is 0.532 fold.

B5: anti-GPNMB antibody GPN-82 (antibody, V domains shown)
VH: QVQLQESGPGLVKPSETLSLTCTVSGISITTGNYRWSWIRQPPGKGLEWIGYIYYSGTIIYNPSLKSRVTITRDTSKNQFSLELSSVTAADTAVYYCARDLTHWYFDVWGQGTLVTVSS
VL: DIVMTQSPDSLAVSLGERATINCKSSRSVDYYGIGFLNWYQQKPGQPPKLLIYATSTQGSGVPDRFSGSGSGTDFTLTISSLQAEDVAVYYCQQQKEVPPTFGGGTKVEIK
Take B5: in assay [2], the “EC50 GCase” value was found to be 0.365 nM, the “EC50 Lyso Tracker” value was determined as 0.64 nM, the “Fold Decrease Lyso Tracker (max response at 1 µg/ml)” value was found to be 0.569 fold and the “Fold Increase GCase” value came out at 1.54 fold. Further, in assay [3], the “EC50 PDL1” value turned out to be 1.94 nM, the “Fold Increase CD40” value was 2.29 fold and the “Fold Increase PDL1” value was 4.6 fold. In addition, in assay [8], the Kd is 2.6 nM, the koff stood at 0.00039 s⁻¹ and the kon was found to be 150000 M⁻¹ s⁻¹. In addition, in assay [4], the Kd is 11.9 nM, the koff turned out to be 0.0024 s⁻¹ and the kon is 200000 M⁻¹ s⁻¹. Also, in assay [5], the Kd worked out at 13.5 nM, the koff was 0.0022 s⁻¹ and the kon is 160000 M⁻¹ s⁻¹. In addition, the “Inflammasome: Fold Decrease IL-1β” value in assay [7] amounted to 0.378 fold.
